Assay results reported in patent US20250295687A1, “TREM COMPOSITIONS AND METHODS OF USE FOR TREATING PROLIFERATIVE DISORDERS” (Flagship Pioneering Innovations VI, LLC, priority 2022, published 2025).

How the values were obtained:
[1] = test system: nonsense mutation in TP53 (R196X; Arg→TGA) in Calu-6 lung carcinoma cells; assay: Western blot of full-length p53 after PTC readthrough in Calu-6 cells (Example 6); assay type: cell-based; conditions: for PTC suppression / production of full-length p53 protein: 48 hours, Western blotting (FIGS. 1-3)
Protocol: Calu-6 is a lung cancer cell line known to harbor a nonsense mutation in TP53 (R196X; Arg→TGA) that results in a premature termination codon (PTC). To test PTC readthrough of the TREM, cells were treated with Arg-TGA, Ser-TGA, or Ser-TAG TREMs or with known translational read-through inducing drugs (RIDs).
(§1) To monitor the ability of the TREMs to readthrough the PTC mutation, the expression of TP53 was assessed by Western blotting 48 hours post-TREM delivery into the cells. Cells were washed once with phosphate buffered saline (PBS) and lysed with 100 uL of RIPA buffer (50 mM Tris, pH 8.0, 150 mM NaCl, 1% Nonidet-P40 (NP-40), 0.5% Deoxycholate, 0.1% sodium dodecyl sulfate (SDS)) supplemented with protease inhibitor, for 30 min at 4° C. The protein extracts were then centrifuged at 21,000 g for 15 min and the supernatant was transferred into clean tubes. Protein concentration was determined using a BCA Protein Assay Kit according to the manufacturer's instructions. 20 μg of total protein were loaded into an SDS-PAGE gel and transferred onto nitrocellulose membranes after electrophoresis. The membranes were probed with anti-p53, anti-p21, and anti-β-tubulin antibodies.

[2] = test system: p21 (downstream transcriptional target of p53) in Calu-6 cells; assay: Western blot of p21 protein levels in Calu-6 cells (p53 functional rescue); assay type: cell-based
Protocol: Calu-6 is a lung cancer cell line known to harbor a nonsense mutation in TP53 (R196X; Arg→TGA) that results in a premature termination codon (PTC). To test PTC readthrough of the TREM, cells were treated with Arg-TGA, Ser-TGA, or Ser-TAG TREMs or with known translational read-through inducing drugs (RIDs). Briefly, 6×10^5 cells were seeded into a 6-well plate and transfected with […] of TREM in 15 uL of RNAiMAX+800 uL OptiMEM; 0.5 or 5 mg/mL G418, an aminoglycoside antibiotic; or Ataluren, a TRID that is approved for the treatment of DMD in Europe at the reported maximally effective dose of 10 uM.
as §1
To determine whether the rescued p53 protein was functional, cellular p21 protein levels were measured (FIG. 4). p21 is a downstream transcriptional target and well-established biomarker of p53 activity.

[3] = test system: NanoLuc with a TGA PTC; assay: In vivo PTC readthrough of NanoLuc TGA reporter by hydrodynamic gene delivery (FIG. 5B); set-up: species or system mouse
Protocol: Hydrodynamic gene delivery (HGD) is a simple, fast, safe, and effective method for delivering transgenes in rodent models. A set of plasmids expressing both an eGFP-Luc-TGA reporter and a TREM were designed. To evaluate tolerability and determine optimal plasmid concentration for maximum TREM delivery to the liver, the eGFP-WT Luc plasmid was administered to adult CD-1 mice via tail vein hydrodynamic injection at three doses: 10 μg, 30 μg, and 50 μg. […] Next, 50 μg of DNA in saline […] was administered to mice via tail vein hydrodynamic injection to assess target engagement and PTC readthrough using either 1) eGFP-Nluc TGA reporter plasmid (PL-854), or 2) eGFP-Nluc WT reporter (PL1202), or 3) all-in-one plasmid eGFP-Nluc-TGA reporter with S-TAG (PL-1216), or 4) all-in-one plasmid eGFP-Nluc-TGA reporter with R-TGA (PL-1215).

## O=C(O)c1cccc(-c2noc(-c3ccccc3F)n2)c1 [Ataluren, reference compound]
[1]; Calu-6 cells treated with 10 μM
  percentage of full-length p53 out of the total p53 protein: about 0%
[1]; Calu-6 cells
  PTC suppression / production of full-length p53 protein: ineffective

## CN[C@@H]1[C@@H](O)[C@@H](O[C@@H]2[C@@H](O)[C@H](O[C@H]3O[C@H]([C@@H](C)O)[C@@H](O)[C@H](O)[C@H]3N)[C@@H](N)C[C@H]2N)OC[C@]1(C)O [G418, reference compound]
[1]; Calu-6 cells
  rescue of TP53 mRNA levels / expression of truncated p53 protein: more effective in rescuing mRNA levels
  PTC suppression / production of full-length p53 protein: marginally increased
[1]; Calu-6 cells treated with 0.5 mg/mL
  percentage of full-length p53 out of the total p53 protein: about 30%
[1]; Calu-6 cells treated with 5 mg/mL
  percentage of full-length p53 out of the total p53 protein: about 30%

B1: Arg-TGA: arginine non-cognate TREM: sequence of ARG-UCU-TREM body but with anticodon UCA instead of UCU (nucleic acid)
chain: GGCUCCGUGGCGCAAUGGAUAGCGCAUUGGACUUCAAAUUCAAAGGUUCCGGGUUCGAGUCCCGGCGGAGUCGCCA
modifications: listed as RNA, chemistry not fully specified
[2]; 100 nM TREM, vs 100 nM SEQ ID NO:623
  p21 levels increase relative to cells treated with SEQ ID NO:623: about 60 fold
[2]; 100 nM TREM, vs 100 nM SEQ ID NO:625
  p21 levels increase relative to cells treated with SEQ ID NO:625: about 30 fold
[2]; 100 nM TREM, vs 10 μM Ataluren
  p21 levels increase relative to cells treated with Ataluren: about 60 fold
[2]; 100 nM TREM, vs 0.5 mg/mL G418
  p21 levels increase relative to cells treated with 0.5 mg/mL G418: about 60 fold
[2]; 100 nM TREM, vs 5 mg/mL G418
  p21 levels increase relative to cells treated with 5 mg/mL G418: about 60 fold
[2]; 100 nM TREM, vs mock-transfected cells
  p21 levels increase relative to mock-transfected cells: about 60 fold
[2]; 100 nM TREM, vs untreated cells
  p21 levels increase relative to untreated cells: about 60 fold
[2]; Western blotting
  rescue of cellular p21 protein levels (FIG. 4): able to rescue p21 protein levels
[1]; Calu-6 cells treated with 100 nM
  percentage of full-length p53 of the total p53 protein: about 95%
[1]; Calu-6 cells, 100 nM TREM, vs 100 nM SEQ ID NO:623
  full-length p53 levels increase relative to cells treated with SEQ ID NO:623: about 55 fold
[1]; Calu-6 cells, 100 nM TREM, vs 100 nM SEQ ID NO:625
  full-length p53 levels increase relative to cells treated with SEQ ID NO:625: about 11 fold
[1]; Calu-6 cells, 100 nM TREM, vs 10 μM Ataluren
  full-length p53 levels increase relative to cells treated with Ataluren: about 55 fold
[1]; Calu-6 cells, 100 nM TREM, vs 0.5 mg/mL G418
  full-length p53 levels increase relative to cells treated with 0.5 mg/mL G418: about 55 fold
[1]; Calu-6 cells, 100 nM TREM, vs 5 mg/mL G418
  full-length p53 levels increase relative to cells treated with 5 mg/mL G418: about 14 fold
[1]; Calu-6 cells, 100 nM TREM, vs mock-transfected cells
  full-length p53 levels increase relative to mock-transfected cells: about 55 fold
[1]; Calu-6 cells, 100 nM TREM, vs untreated cells
  full-length p53 levels increase relative to untreated cells: about 55 fold
[1]; Calu-6 cells, 48 hours post-TREM delivery, Western blotting
  total p53 that was full length (FIG. 3): about 90%
[1]; Calu-6 cells
  PTC suppression / production of full-length p53 protein: robustly induce PTC suppression
[3]; mice, 50 μg of DNA in saline, tail vein hydrodynamic injection, all-in-one plasmid eGFP-Nluc-TGA reporter (FIG. 5B)
  increase in luciferase signal compared to controls: ~1000 fold
[3]; mouse, hydrodynamic delivery of plasmid (FIG. 5B)
  total flux signal in the liver: about 2×10^9 p/s
